# Read-outs that look alike come from different tables or passages of the source.
# B1: (2,3) (structured_RNA)
# RNA: GCAGUUUCAGCCCCAGCCCCUAUUUCUGUUUCUGUUUCUGC
# B2: (1,2,3) (structured_RNA)
# RNA: GCAGCCCCAGCCCCAGCCCCUAUUUCUGUUUCUGUUUCUGC
# B3: Exon 4 hp (structured_RNA)
# RNA: GCUGGCGACCUAUUCCCUUUGACGAUCCCUAGGUGGAGAUGGGGCAUGAGGAUCCUCCAGGGGAAUAGCUCACCACC
# B4: Rab7 (ssRNA)
# RNA: GUCAUUUUCUCCCUUUCUGUUUUUCUUC
# B5: M5' ssDNA (ssDNA)
# DNA: ATATTCCCTC
# B6: (1,2,3,4) (structured_RNA)
# RNA: GCAGCCCCAGCCCCAGCCCCUACCCCUGUUUCUGUUUCUGC
# B7: CDK6 3'UTR (ssRNA)
# RNA: GGUCCCCCGCCUCAUUCGCCCCUCUGCUCCC
# B8: (1,6) (structured_RNA)
# RNA: GCAGCCCCAGUUUCAGUUUUUAUUUCUGUUUCUGCCCCUGC
# B9: Ucp2 (ssRNA)
# RNA: GCCAACCUCUUCCCAUUUCCCACACUCCAACUCCCU
# B10: (1,3) (structured_RNA)
# RNA: GCAGCCCCAGUUUCAGCCCCUAUUUCUGUUUCUGUUUCUGC
# B11: B motif RNA WT (structured_RNA)
# RNA: GCAGCCCCAGCCCCAGCCCCUACCCCUGCCCCUGCCCCUGC
# B12: (1,2,3,4,5) (structured_RNA)
# RNA: GCAGCCCCAGCCCCAGCCCCUACCCCUGCCCCUGUUUCUGC
# B13: Sirloin motif (ssRNA)
# RNA: GCGCCUCCCGGGUUCAAGCGAUUCUCCUGCCUCAGCCUCCCGA
# B14: MYU lncRNA (ssRNA)
# RNA: GGCUCCCCCGACCUCUGUGCUCCCCUCCCCCGACCUCUGUGC
# Key:
# Experiment in all cases: fluorescence anisotropy
# [1] = biological target: T1, hnRNPK full-length (human/mouse (100% identical), UniProt P61978 1-463)
# [2] = biological target: T1, hnRNPK full-length; remark: listed apart in the source
# [3] = biological target: hnRNPK deltaKH3 (human/mouse (100% identical), UniProt P61978 1-337)
# [4] = biological target: hnRNPK KH3 (human/mouse (100% identical), UniProt P61978 379-463)
# [5] = biological target: hnRNPK R9 to S9 (human/mouse (100% identical), UniProt P61978 1-463, R247S;R256S;R258S;R268S;R287S;R296S;R299S;R316S;R326S)
# [6] = biological target: T1, hnRNPK full-length; remark: listed apart in the source
# [7] = biological target: hnRNPK KH1 (human/mouse (100% identical), UniProt P61978 37-120)
binder,measurement,setting,value
B1,Kd,[1],710 nM
B2,binding result,[2],binds
B3,binding result,[1],no binding
B4,Kd,[3],360 ± 80 nM
same,Kd,[1],110 ± 20 nM
B5,Kd,[1],1400 ± 200 nM
same,Kd,[4],8700 ± 1300 nM
same,Kd,[5],3000 ± 100 nM
B6,binding result,[2],binds
B7,Kd,[3],710 ± 50 nM
same,Kd,[1],450 ± 60 nM
same,Kd,[4],12900 ± 700 nM
B8,binding result,[6],no binding
B9,Kd,[3],87 ± 9 nM
same,Kd,[1],44 ± 3 nM
same,Kd,[4],11100 ± 600 nM
B10,binding result,[6],no binding
B11,Kd,[3],140 ± 30 nM
same,Kd,[1],61 ± 6 nM
same,binding result,[7],no binding
B12,binding result,[2],binds
B13,Kd,[3],760 ± 40 nM
same,Kd,[1],690 ± 20 nM
B14,Kd,[3],120 ± 10 nM
same,Kd,[1],70 ± 7 nM
